Measurements as given in patent US20190262431.

T1: recombinant Shp-2
T1 sequence (Q06124 2-593, species assumed, looked up): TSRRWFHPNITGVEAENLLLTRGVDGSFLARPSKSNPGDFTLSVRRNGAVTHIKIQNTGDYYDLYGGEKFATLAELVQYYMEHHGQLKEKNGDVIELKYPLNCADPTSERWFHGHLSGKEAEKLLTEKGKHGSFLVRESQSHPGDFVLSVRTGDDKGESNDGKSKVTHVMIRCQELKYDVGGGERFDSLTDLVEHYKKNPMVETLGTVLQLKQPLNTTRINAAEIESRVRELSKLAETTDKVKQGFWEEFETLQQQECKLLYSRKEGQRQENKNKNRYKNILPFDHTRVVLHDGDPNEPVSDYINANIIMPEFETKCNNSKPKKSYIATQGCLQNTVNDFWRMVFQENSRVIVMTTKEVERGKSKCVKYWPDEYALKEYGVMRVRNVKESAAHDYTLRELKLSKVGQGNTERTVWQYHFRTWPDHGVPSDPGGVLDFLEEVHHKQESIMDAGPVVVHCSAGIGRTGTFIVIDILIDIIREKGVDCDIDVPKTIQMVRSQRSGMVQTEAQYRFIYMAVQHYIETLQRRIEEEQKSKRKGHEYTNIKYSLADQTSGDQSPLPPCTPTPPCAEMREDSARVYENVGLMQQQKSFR


Experiments:
[1] = biological target: active (phosphorylated) human Syk (Merck Millipore), P43405
[2] = biological target: inactive (non-phosphorylated) human Syk-GST (Life technologies), P43405
recombinant Shp-2 = biological target: T1, recombinant Shp-2

Protein | in vitro poly-ubiquitination of active Syk (Western blot) [1] | in vitro poly-ubiquitination of inactive Syk (Syk-GST) (Western blot) [2] | in vitro poly-ubiquitination of recombinant Shp-2 (recombinant Shp-2) | in vitro poly-ubiquitination of recombinant active Syk (Western blot) [1]
human Cbl-b^29-483 (recombinant, GST fusion protein) (protein) IQDAVGPPKQAAADRRTVEKTWKLMDKVVRLCQNPKLQLKNSPPYILDILPDTYQHLRLILSKYDDNQKLAQLSENEYFKIYIDSLMKKSKRAIRLFKEGKERMYEEQSQDRRNLTKLSLIFSHMLAEIKAIFPNGQFQGDNFRITKADAAEFWRKFFGDKTIVPWKVFRQCLHEVHQISSGLEAMALKSTIDLTCNDYISVFEFDIFTRLFQPWGSILRNWNFLAVTHPGYMAFLTYDEVKARLQKYSTKPGSYIFRLSCTRLGQWAIGYVTGDGNILQTIPHNKPLFQALIDGSREGFYLYPDGRSYNPDLTGLCEPTPHDHIKVTQEQYELYCEMGSTFQLCKICAENDKDVKIEPCGHLMCTSCLTAWQESDGQGCPFCRCEIKGTEPIIVDPFDPRDEGSRCCSIIDPFGMPMLDLDDDDDREESLMMNRLANVRKCTDRQNSPVTSPGS | still exhibited poly-ubiquitination activity towards Syk | non-phosphorylated recombinant Syk showed strongly diminished poly-ubiquitination by Cbl-d^29-483 | – | –
full length human Cbl-b (Abnova) (protein) MANSMNGRNPGGRGGNPRKGRILGIIDAIQDAVGPPKQAAADRRTVEKTWKLMDKVVRLCQNPKLQLKNSPPYILDILPDTYQHLRLILSKYDDNQKLAQLSENEYFKIYIDSLMKKSKRAIRLFKEGKERMYEEQSQDRRNLTKLSLIFSHMLAEIKAIFPNGQFQGDNFRITKADAAEFWRKFFGDKTIVPWKVFRQCLHEVHQISSGLEAMALKSTIDLTCNDYISVFEFDIFTRLFQPWGSILRNWNFLAVTHPGYMAFLTYDEVKARLQKYSTKPGSYIFRLSCTRLGQWAIGYVTGDGNILQTIPHNKPLFQALIDGSREGFYLYPDGRSYNPDLTGLCEPTPHDHIKVTQEQYELYCEMGSTFQLCKICAENDKDVKIEPCGHLMCTSCLTAWQESDGQGCPFCRCEIKGTEPIIVDPFDPRDEGSRCCSIIDPFGMPMLDLDDDDDREESLMMNRLANVRKCTDRQNSPVTSPGSSPLAQRRKPQPDPLQIPHLSLPPVPPRLDLIQKGIVRSPCGSPTGSPKSSPCMVRKQDKPLPAPPPPLRDPPPPPPERPPPIPPDNRLSRHIHHVESVPSRDPPMPLEAWCPRDVFGTNQLVGCRLLGEGSPKPGITASSNVNGRHSRVGSDPVLMRKHRRHDLPLEGAKVFSNGHLGSEEYDVPPRLSPPPPVTTLLPSIKCTGPLANSLSEKTRDPVEEDDDEYKIPSSHPVSLNSQPSHCHNVKPPVRSCDNGHCMLNGTHGPSSEKKSNIPDLSIYLKGDVFDSASDPVPLPPARPPTRDNPKHGSSLNRTPSDYDLLIPPLGEDAFDALPPSLPPPPPPARHSLIEHSKPPGSSSRPSSGQDLFLLPSDPFVDLASGQVPLPPARRLPGENVKTNRTSQDYDQLPSCSDGSQAPARPPKPRPRRTAPEIHHRKPHGPEAALENVDAKIAKLMGEGYAFEEVKRALEIAQNNVEVARSILREFAFPPPVSPRLNL | – | – | No poly-ubiquitination of recombinant Shp-2 was detected in these assays | robust poly-ubiquitination of recombinant active Syk was observed
